Measured values: patent publication US20260242735A1 (UNIVERSIT T BASEL, published 2026)
Values belong to the binder of their own block, whether it stands above or below them.

Legend:
human wild-type CD33 = target: T1, human wild-type CD33 (human, UniProt P20138 18-364); test: flow cytometry, IgG at 0.25 ug/ml on HEK293-T cells expressing CD33 against vector alone
T1 construct: also called SIGLEC3; P67

[1] = target: T2, CD33 variant W22R on base-edited human CD34+ HSPCs (human, UniProt P20138 18-364); test: flow cytometry sorting and NGS of sgRNA-E base-edited human CD34+ HSPCs
T2 construct: also called sgRNA-E edited CD33

[2] = target: CD33 variant W22D (recombinant, biotinylated) (human, UniProt P20138 18-259, biotinylated with EZ-Link Sulfo-NHS-LC-Biotin (sites not given)); test: BLI (Octet R8), avidity format: biotinylated CD33 on streptavidin sensor, Refmab #4 as analyte at 500 nM;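 further: analyte association recorded over 300 s, followed by a 900 s dissociation phase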
Sequence of CD33 variant W22D (recombinant, biotinylated) (P20138 other isoform, or with tags, fused parts or gaps W22D W22D): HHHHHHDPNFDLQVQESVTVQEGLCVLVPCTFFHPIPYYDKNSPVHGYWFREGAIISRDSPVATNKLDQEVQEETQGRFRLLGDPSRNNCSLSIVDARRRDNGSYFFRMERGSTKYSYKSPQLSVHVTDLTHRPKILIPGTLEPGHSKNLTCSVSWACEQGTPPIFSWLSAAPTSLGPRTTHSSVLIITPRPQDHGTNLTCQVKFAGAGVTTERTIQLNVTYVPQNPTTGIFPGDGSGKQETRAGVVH

[3] = target: CD33 variant W22E (recombinant, biotinylated) (human, UniProt P20138 18-259, biotinylated with EZ-Link Sulfo-NHS-LC-Biotin (sites not given)); test: as above
[4] = target: CD33 variant N20H (recombinant, biotinylated) (human, UniProt P20138 21-259, biotinylated with EZ-Link Sulfo-NHS-LC-Biotin (sites not given)); test: as above
Sequence of CD33 variant N20H (recombinant, biotinylated) (P20138 other isoform, or with tags, fused parts or gaps N20H N20H): as the sequence (P20138 other isoform, or with tags, fused parts or gaps W22D W22D) above, with N9H, D11W counted along it

[5] = target: CD33 variant Y50R (recombinant, biotinylated) (human, UniProt P20138 18-259, biotinylated with EZ-Link Sulfo-NHS-LC-Biotin (sites not given)); test: as above
Sequence of CD33 variant Y50R (recombinant, biotinylated) (P20138 other isoform, or with tags, fused parts or gaps Y50R Y50R): as the sequence (P20138 other isoform, or with tags, fused parts or gaps W22D W22D) above, with D11W, Y39R counted along it

[6] = target: CD33 variant F21H (recombinant, biotinylated) (human, UniProt P20138 22-259, biotinylated with EZ-Link Sulfo-NHS-LC-Biotin (sites not given)); test: as above
[7] = target: CD33 variant N20G (recombinant, biotinylated) (human, UniProt P20138 21-259, biotinylated with EZ-Link Sulfo-NHS-LC-Biotin (sites not given)); test: as above
[8] = target: CD33 variant W22K (recombinant, biotinylated) (human, UniProt P20138 18-259, biotinylated with EZ-Link Sulfo-NHS-LC-Biotin (sites not given)); test: as above
Sequence of CD33 variant W22K (recombinant, biotinylated) (P20138 other isoform, or with tags, fused parts or gaps W22K W22K): as the sequence (P20138 other isoform, or with tags, fused parts or gaps W22D W22D) above, with D11K counted along it

[9] = target: CD33 variant W22R (recombinant, biotinylated) (human, UniProt P20138 18-259, biotinylated with EZ-Link Sulfo-NHS-LC-Biotin (sites not given)); test: as above
[10] = target: CD33 variant F21L (recombinant, biotinylated) (human, UniProt P20138 22-259, biotinylated with EZ-Link Sulfo-NHS-LC-Biotin (sites not given)); test: as above
Sequence of CD33 variant F21L (recombinant, biotinylated) (P20138 other isoform, or with tags, fused parts or gaps F21L F21L): as the sequence (P20138 other isoform, or with tags, fused parts or gaps W22D W22D) above, with F10L, D11W counted along it

[11] = target: CD33 variant F21S (recombinant, biotinylated) (human, UniProt P20138 22-259, biotinylated with EZ-Link Sulfo-NHS-LC-Biotin (sites not given)); test: as above
Sequence of CD33 variant F21S (recombinant, biotinylated) (P20138 other isoform, or with tags, fused parts or gaps F21S F21S): as the sequence (P20138 other isoform, or with tags, fused parts or gaps W22D W22D) above, with F10S, D11W counted along it

[12] = target: CD33 variant N20V (recombinant, biotinylated) (human, UniProt P20138 21-259, biotinylated with EZ-Link Sulfo-NHS-LC-Biotin (sites not given)); test: as above
Sequence of CD33 variant N20V (recombinant, biotinylated) (P20138 other isoform, or with tags, fused parts or gaps N20V N20V): as the sequence (P20138 other isoform, or with tags, fused parts or gaps W22D W22D) above, with N9V, D11W counted along it

[13] = target: CD33 variant F44P (recombinant, biotinylated) (human, UniProt P20138 18-259, biotinylated with EZ-Link Sulfo-NHS-LC-Biotin (sites not given)); test: as above
Sequence of CD33 variant F44P (recombinant, biotinylated) (P20138 other isoform, or with tags, fused parts or gaps F44P F44P): as the sequence (P20138 other isoform, or with tags, fused parts or gaps W22D W22D) above, with D11W, F33P counted along it

[14] = target: CD33 variant N20K (recombinant, biotinylated) (human, UniProt P20138 21-259, biotinylated with EZ-Link Sulfo-NHS-LC-Biotin (sites not given)); test: as above
Sequence of CD33 variant N20K (recombinant, biotinylated) (P20138 other isoform, or with tags, fused parts or gaps N20K N20K): as the sequence (P20138 other isoform, or with tags, fused parts or gaps W22D W22D) above, with N9K, D11W counted along it

[15] = target: CD33 variant F21Q (recombinant, biotinylated) (human, UniProt P20138 22-259, biotinylated with EZ-Link Sulfo-NHS-LC-Biotin (sites not given)); test: as above
Sequence of CD33 variant F21Q (recombinant, biotinylated) (P20138 other isoform, or with tags, fused parts or gaps F21Q F21Q): as the sequence (P20138 other isoform, or with tags, fused parts or gaps W22D W22D) above, with F10Q, D11W counted along it

[16] = target: CD33 variant W22T (recombinant, biotinylated) (human, UniProt P20138 18-259, biotinylated with EZ-Link Sulfo-NHS-LC-Biotin (sites not given)); test: as above
[17] = target: CD33 variant F21N (recombinant, biotinylated) (human, UniProt P20138 22-259, biotinylated with EZ-Link Sulfo-NHS-LC-Biotin (sites not given)); test: as above
Sequence of CD33 variant F21N (recombinant, biotinylated) (P20138 other isoform, or with tags, fused parts or gaps F21N F21N): as the sequence (P20138 other isoform, or with tags, fused parts or gaps W22D W22D) above, with F10N, D11W counted along it

[18] = target: CD33 variant F21M (recombinant, biotinylated) (human, UniProt P20138 22-259, biotinylated with EZ-Link Sulfo-NHS-LC-Biotin (sites not given)); test: as above
Sequence of CD33 variant F21M (recombinant, biotinylated) (P20138 other isoform, or with tags, fused parts or gaps F21M F21M): as the sequence (P20138 other isoform, or with tags, fused parts or gaps W22D W22D) above, with F10M, D11W counted along it

[19] = target: CD33 variant Y50D (recombinant, biotinylated) (human, UniProt P20138 18-259, biotinylated with EZ-Link Sulfo-NHS-LC-Biotin (sites not given)); test: as above
Sequence of CD33 variant Y50D (recombinant, biotinylated) (P20138 other isoform, or with tags, fused parts or gaps Y50D Y50D): as the sequence (P20138 other isoform, or with tags, fused parts or gaps W22D W22D) above, with D11W, Y39D counted along it

[20] = target: CD33 variant N20E (recombinant, biotinylated) (human, UniProt P20138 21-259, biotinylated with EZ-Link Sulfo-NHS-LC-Biotin (sites not given)); test: as above
Sequence of CD33 variant N20E (recombinant, biotinylated) (P20138 other isoform, or with tags, fused parts or gaps N20E N20E): as the sequence (P20138 other isoform, or with tags, fused parts or gaps W22D W22D) above, with N9E, D11W counted along it

[21] = target: CD33 variant F21I (recombinant, biotinylated) (human, UniProt P20138 22-259, biotinylated with EZ-Link Sulfo-NHS-LC-Biotin (sites not given)); test: as above
[22] = target: CD33 variant F21V (recombinant, biotinylated) (human, UniProt P20138 22-259, biotinylated with EZ-Link Sulfo-NHS-LC-Biotin (sites not given)); test: as above
Sequence of CD33 variant F21V (recombinant, biotinylated) (P20138 other isoform, or with tags, fused parts or gaps F21V F21V): as the sequence (P20138 other isoform, or with tags, fused parts or gaps W22D W22D) above, with F10V, D11W counted along it

[23] = target: CD33 variant Y50K (recombinant, biotinylated) (human, UniProt P20138 18-259, biotinylated with EZ-Link Sulfo-NHS-LC-Biotin (sites not given)); test: as above
Sequence of CD33 variant Y50K (recombinant, biotinylated) (P20138 other isoform, or with tags, fused parts or gaps Y50K Y50K): as the sequence (P20138 other isoform, or with tags, fused parts or gaps W22D W22D) above, with D11W, Y39K counted along it

[24] = target: T3, CD33 wild type (recombinant, biotinylated) (human, UniProt P20138 18-259, biotinylated with EZ-Link Sulfo-NHS-LC-Biotin (sites not given)); test: as above
T3 construct: also called WT; CD33 wt
T3 sequence (P20138 other isoform, or with tags, fused parts or gaps): as the sequence (P20138 other isoform, or with tags, fused parts or gaps W22D W22D) above, with D11W counted along it

[25] = target: CD33 double variant Y50H_H49H (recombinant, biotinylated) (human, UniProt P20138 18-259, biotinylated with EZ-Link Sulfo-NHS-LC-Biotin (sites not given)); test: as above

T1 sequence (P20138 18-364 limits assumed): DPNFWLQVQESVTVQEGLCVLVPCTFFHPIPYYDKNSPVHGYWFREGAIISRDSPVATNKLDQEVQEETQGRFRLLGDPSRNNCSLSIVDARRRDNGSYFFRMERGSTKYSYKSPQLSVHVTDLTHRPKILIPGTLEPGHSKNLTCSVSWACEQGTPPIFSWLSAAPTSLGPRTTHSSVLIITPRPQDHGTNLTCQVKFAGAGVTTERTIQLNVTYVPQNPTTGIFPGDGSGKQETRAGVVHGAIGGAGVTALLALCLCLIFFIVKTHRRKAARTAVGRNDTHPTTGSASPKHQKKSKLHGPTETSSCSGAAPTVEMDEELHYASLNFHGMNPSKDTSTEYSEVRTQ

Signal:Background (human wild-type CD33): 35 signal:background ratio | binding result [1]: no binding
B1: Refmab #3 (antibody, V domains shown)
VH: QVQLVQSGAEVKKPGSSVKVSCKASGYTFTDYNMHWVRQAPGQGLEWIGYIYPYNGGTGYNQKFKSKATITADESTNTAYMELSSLRSEDTAVYYCARGRPAMDYWGQGTLVTVSS
VL: DIQMTQSPSSLSASVGDRVTITCRASESVDNYGISFMNWFQQKPGKAPKLLIYAASNQGSGVPSRFSGSGSGTDFTLTISSLQPDDFATYYCQQSKEVPWTFGQGTKVEIK
notes: Full-length MAb format, human IgG1 Fc silent (PG-LALA)

% WT binding [2]: 129 % WT binding | % WT binding [3]: 136 % WT binding | % WT binding [4]: 87.7 % WT binding | % WT binding [5]: 0 % WT binding | % WT binding [6]: 103 % WT binding | % WT binding [7]: 89 % WT binding | % WT binding [8]: 99.3 % WT binding | % WT binding [9]: 87.2 % WT binding | % WT binding [10]: 88.3 % WT binding | % WT binding [11]: 106 % WT binding | % WT binding [12]: 99.5 % WT binding | % WT binding [13]: 73.9 % WT binding | % WT binding [14]: 79.4 % WT binding | % WT binding [15]: 122 % WT binding | % WT binding [16]: 100 % WT binding | % WT binding [17]: 108 % WT binding | % WT binding [18]: 122 % WT binding | % WT binding [19]: 0 % WT binding | % WT binding [20]: 111 % WT binding | % WT binding [21]: 91 % WT binding | % WT binding [22]: 96 % WT binding | % WT binding [23]: 0 % WT binding | % WT binding [24]: 100 % WT binding | % WT binding [25]: 0 % WT binding
B2: Refmab #4 (antibody, human IgG1, V domains shown)
VH: QVQLVQSGAEVKKPGESVKVSCKASGYTFTNYGMNWVKQAPGQGLEWMGWINTYTGEPTYADKFQGRVTMTTDTSTSTAYMEIRNLGGDDTAVYYCARWSWSDGYYVYFDYWGQGTSVTVSS
VL: DIVMTQSPDSLTVSLGERTTINCKSSQSVLDSSTNKNSLAWYQQKPGQPPKLLLSWASTRESGIPDRFSGSGSGTDFTLTIDSPQPEDSATYYCQQSAHFPITFGQGTRLEIK
